In US20250283116, “USE OF ISCB IN GENOME EDITING” (Cornell University, published 2025):

Target: T1, OgeuIscB wild-type (human gut metagenome)
T1 chain: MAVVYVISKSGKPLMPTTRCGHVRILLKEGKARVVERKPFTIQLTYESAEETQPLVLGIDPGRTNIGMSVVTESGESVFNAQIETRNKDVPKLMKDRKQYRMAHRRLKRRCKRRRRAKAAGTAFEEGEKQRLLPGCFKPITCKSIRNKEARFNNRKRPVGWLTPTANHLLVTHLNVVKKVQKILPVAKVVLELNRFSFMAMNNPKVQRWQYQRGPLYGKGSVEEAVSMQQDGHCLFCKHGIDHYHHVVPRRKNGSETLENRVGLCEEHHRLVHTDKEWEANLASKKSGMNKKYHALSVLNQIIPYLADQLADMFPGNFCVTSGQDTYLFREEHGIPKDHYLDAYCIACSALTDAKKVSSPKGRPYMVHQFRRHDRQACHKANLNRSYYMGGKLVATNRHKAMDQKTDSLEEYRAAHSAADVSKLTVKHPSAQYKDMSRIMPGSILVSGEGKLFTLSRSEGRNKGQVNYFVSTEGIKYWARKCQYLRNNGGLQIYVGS
Assay: structure; cryo-EM of IscB-ωRNA/target DNA at 2.78 A; TAM 5'-CTAGAA-3' (ideal NWRRNA)
Conditions: label: 5' 6-FAM on non-target strand; partially mismatched bubble in protospacer
Experimental: IscB was incubated for 15 minutes at 37° C. with the target DNA in cleavage buffer. DNA was supplied at a 3 fold molar excess to IscB (0.5 mg/mL final concentration). 3.5 μL of were applied to a Quantifoil holey carbon grid (1.2/1.3, 200 mesh) which had been glow-discharged with 20 mA at 0.39 mBar for 30 seconds (PELCO easiGlow). Grids were blotted with Vitrobot blotting paper (Electron Microscopy Sciences) for 6.5 s at 4° C., 100% humidity, and plunge-frozen in liquid ethane using a Mark IV FEI/Thermo Fisher Vitrobot. Data were collected on a Krios G3i Cryo Transmission Electron Microscope (Thermo Scientific) with a Ceta 16M CMOS camera 300 kV, Gatan K3 direct electron detector. The total exposure time of each movie stack led to a total accumulated dose of 50 electrons per Å2 which fractionated into 50 frames. Dose-fractionated super-resolution movie stacks collected from the Gatan K3 direct electron detector were binned to a pixel size of 1.1 Å. The defocus value was set between −1.0 μm to −2.5 μm.

B1: OgeuIscB ωRNA with 16-nt guide ; cryo-EM target DNA (ssRNA ; dsDNA)
RNA: AAAAGAGUGAACGAGAGGCUCUUCCAACUUUAUGGUUGCGACCGUAGGUUGAAAGAGCACAGGCUGAGACAUUCGUAAGGCCGAAAGACCGGACGCACCCUGGGAUUUCCCCAGUCCCCGGAACUGCAUAGCGGAUGCCAGUUGAUGGAGCAAUCUAUCAGAUAAGCCAGGGGGAACAAUCACCUCUCUGUAUCAGAGAGAGUUUUACAAAAGGAGGAACGG
DNA 1: CGCCCCACGAGGGTACGGCAAAAGAGTTTTTTTTACTAGAAGTCGAGGTCAGCCCGTGGC
DNA 2: GCCACGGGCTGACCTCGACTTCTAGTCTCGTTCACTCTTTTGCCGTACCCTCGTGGGGCG
modifications: phosphorothioate at several positions of both strands (after G25-T31 region as marked by *)
- binding result: binds
